From the supplement of paper PMC10567573

B1: EIF5 (parent)
chain: KQTIGNSCKACGYRGMLDTHHKLC

Variants of: B1
Assay: protein stability index of a GFP-peptide fusion (GPS, HEK-293T) (PSI 1-6); higher = more stable
Conditions: c terminus: a fixed tail appended
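Further: lentivirally expressed fusions sorted by FACS into six bins by GFP to DsRed ratio, PSI derived from sequencing read proportions per bin multiplied by bin number.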

| Variant | protein stability index |
| --- | --- |
| KQTIGNSCKACGYAGMLDTHHKLC | 2.93 |
| KQTIGNSCKACGYCGMLDTHHKLC | 4.75 |
| KQTIGNSCKACGYDGMLDTHHKLC | 3.41 |
| KQTIGNSCKACGYEGMLDTHHKLC | 3.1 |
| KQTIGNSCKACGYFGMLDTHHKLC | 3.14 |
| KQTIGNSCKACGYGGMLDTHHKLC | 3.29 |
| KQTIGNSCKACGYHGMLDTHHKLC | 3.42 |
| KQTIGNSCKACGYIGMLDTHHKLC | 3.33 |
| KQTIGNSCKACGYKGMLDTHHKLC | 3.89 |
| KQTIGNSCKACGYLGMLDTHHKLC | 2.96 |
| KQTIGNSCKACGYMGMLDTHHKLC | 2.97 |
| KQTIGNSCKACGYNGMLDTHHKLC | 3.04 |
| KQTIGNSCKACGYPGMLDTHHKLC | 3.69 |
| KQTIGNSCKACGYQGMLDTHHKLC | 3.35 |
| KQTIGNSCKACGYSGMLDTHHKLC | 3.51 |
| KQTIGNSCKACGYTGMLDTHHKLC | 3.52 |
| KQTIGNSCKACGYVGMLDTHHKLC | 3.15 |
| KQTIGNSCKACGYWGMLDTHHKLC | 2.12 |
| KQTIGNSCKACGYYGMLDTHHKLC | 2.64 |
| KQTIGNSCKACGYRAMLDTHHKLC | 1.78 |
| KQTIGNSCKACGYRCMLDTHHKLC | 2.44 |
| KQTIGNSCKACGYRDMLDTHHKLC | 2.94 |
| KQTIGNSCKACGYREMLDTHHKLC | 2.24 |
| KQTIGNSCKACGYRFMLDTHHKLC | 2.24 |

| Variant | protein stability index |
| --- | --- |
| KQTIGNSCKACGYRHMLDTHHKLC | 3.1 |
| KQTIGNSCKACGYRIMLDTHHKLC | 2.26 |
| KQTIGNSCKACGYRKMLDTHHKLC | 2.11 |
| KQTIGNSCKACGYRLMLDTHHKLC | 2.44 |
| KQTIGNSCKACGYRMMLDTHHKLC | 1.84 |
| KQTIGNSCKACGYRNMLDTHHKLC | 2.45 |
| KQTIGNSCKACGYRPMLDTHHKLC | 2.93 |
| KQTIGNSCKACGYRQMLDTHHKLC | 2.12 |
| KQTIGNSCKACGYRRMLDTHHKLC | 2.72 |
| KQTIGNSCKACGYRSMLDTHHKLC | 2.12 |
| KQTIGNSCKACGYRTMLDTHHKLC | 2.27 |
| KQTIGNSCKACGYRVMLDTHHKLC | 2.12 |
| KQTIGNSCKACGYRWMLDTHHKLC | 1.52 |
| KQTIGNSCKACGYRYMLDTHHKLC | 2.59 |
| KQTIGNSCKACGYRGALDTHHKLC | 3.94 |
| KQTIGNSCKACGYRGCLDTHHKLC | 3.75 |
| KQTIGNSCKACGYRGDLDTHHKLC | 4.72 |
| KQTIGNSCKACGYRGELDTHHKLC | 4.14 |
| KQTIGNSCKACGYRGFLDTHHKLC | 2.58 |
| KQTIGNSCKACGYRGGLDTHHKLC | 3.91 |
| KQTIGNSCKACGYRGHLDTHHKLC | 4.16 |
| KQTIGNSCKACGYRGILDTHHKLC | 3.07 |
| KQTIGNSCKACGYRGKLDTHHKLC | 4.35 |
| KQTIGNSCKACGYRGLLDTHHKLC | 3.51 |

| Variant | protein stability index |
| --- | --- |
| KQTIGNSCKACGYRGNLDTHHKLC | 3.63 |
| KQTIGNSCKACGYRGPLDTHHKLC | 4.45 |
| KQTIGNSCKACGYRGQLDTHHKLC | 3.9 |
| KQTIGNSCKACGYRGRLDTHHKLC | 3.29 |
| KQTIGNSCKACGYRGSLDTHHKLC | 3.8 |
| KQTIGNSCKACGYRGTLDTHHKLC | 4.14 |
| KQTIGNSCKACGYRGVLDTHHKLC | 3.27 |
| KQTIGNSCKACGYRGWLDTHHKLC | 2.62 |
| KQTIGNSCKACGYRGYLDTHHKLC | 2.98 |
| KQTIGNSCKACGYRGMADTHHKLC | 3.66 |
| KQTIGNSCKACGYRGMCDTHHKLC | 4.42 |
| KQTIGNSCKACGYRGMDDTHHKLC | 4.68 |
| KQTIGNSCKACGYRGMEDTHHKLC | 3.98 |
| KQTIGNSCKACGYRGMFDTHHKLC | 2.55 |
| KQTIGNSCKACGYRGMGDTHHKLC | 3.77 |
| KQTIGNSCKACGYRGMHDTHHKLC | 3.63 |
| KQTIGNSCKACGYRGMIDTHHKLC | 3.33 |
| KQTIGNSCKACGYRGMKDTHHKLC | 3.44 |
| KQTIGNSCKACGYRGMMDTHHKLC | 2.96 |
| KQTIGNSCKACGYRGMNDTHHKLC | 3.65 |
| KQTIGNSCKACGYRGMPDTHHKLC | 3.88 |
| KQTIGNSCKACGYRGMQDTHHKLC | 3.85 |
| KQTIGNSCKACGYRGMRDTHHKLC | 3.44 |
| KQTIGNSCKACGYRGMSDTHHKLC | 4.24 |

| Variant | protein stability index |
| --- | --- |
| KQTIGNSCKACGYRGMTDTHHKLC | 3.91 |
| KQTIGNSCKACGYRGMVDTHHKLC | 2.6 |
| KQTIGNSCKACGYRGMWDTHHKLC | 2.31 |
| KQTIGNSCKACGYRGMYDTHHKLC | 3.1 |
| KQTIGNSCKACGYRGMLATHHKLC | 2.85 |
| KQTIGNSCKACGYRGMLCTHHKLC | 3.19 |
| KQTIGNSCKACGYRGMLETHHKLC | 3.35 |
| KQTIGNSCKACGYRGMLFTHHKLC | 2.08 |
| KQTIGNSCKACGYRGMLGTHHKLC | 2.81 |
| KQTIGNSCKACGYRGMLHTHHKLC | 3.07 |
| KQTIGNSCKACGYRGMLITHHKLC | 2.24 |
| KQTIGNSCKACGYRGMLKTHHKLC | 2.46 |
| KQTIGNSCKACGYRGMLLTHHKLC | 2.38 |
| KQTIGNSCKACGYRGMLMTHHKLC | 2.56 |
| KQTIGNSCKACGYRGMLNTHHKLC | 2.88 |
| KQTIGNSCKACGYRGMLPTHHKLC | 2.71 |
| KQTIGNSCKACGYRGMLQTHHKLC | 2.29 |
| KQTIGNSCKACGYRGMLRTHHKLC | 2.65 |
| KQTIGNSCKACGYRGMLSTHHKLC | 3.22 |
| KQTIGNSCKACGYRGMLTTHHKLC | 2.96 |
| KQTIGNSCKACGYRGMLVTHHKLC | 2.39 |
| KQTIGNSCKACGYRGMLWTHHKLC | 1.99 |
